Two molecules from patent publication US20110229908A1 can be followed below.

One test addresses BJ kappa Ke (human). The test can be described thus: haemagglutination of sheep RBC coated with BJ kappa Ke.
In another test the target is BJ kappa Bo (human). Nature of the test: haemagglutination of sheep RBC coated with BJ kappa Bo.

B1: monoclonal antibody KA1 (antibody, V domains shown)
VH: DVQLQESGPGLVNPSQSLSLTCTVTGYSITGDYAWNWIRQFPGNKLEWMGYISYSGLTSYNPSLKSRISITRDTSKNQFFLQLNSVATEDTATYYCTSFYYGYWYFDVWGAGTTVTVSS
VL: DIQMTQSPASLSASVGETVTITCRASENIYSFLTWYLQKQGKSPQLLVNNAKTLAEGVPSRFSGSGSGSQFSLKINSLQPEDFGTYYCQHHYGTPYTFGGGTKLEIKR
In the case of B1, the MAb dilution used against coated red cells in the test with BJ kappa Ke (human) was determined as 1e-05 dilution.

B2: monoclonal antibody 1B6 (antibody, mouse IgG1, V domains shown)
VH: RQFPGNKLEWMGYINYSGITSYNPSLKSRFSITRDTSKNQFFLQLNSVTTEDTATYYCASWYYGNWYFDVWGAGTTVTVSS
VL: DIQMTQSPASLSVSVGETVTITCRASENIYSNLAWYQQKQGNSPQLLVYAATNLADGVPSRFSGSGSGTQYSLKINSLQSEDFGNYYCQHFWGTPWTFGGGTKLEIKR
B2 showed an MAb dilution used against coated red cells with BJ kappa Bo (human) of 1e-05 dilution.
